Test: yeast display, Sf9 membrane polyspecificity reagent, FACS + sequencing; frameworks hold sequencing errors
Outline: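 A nanobody's polyreactivity label depends on the gate it was sorted from. Yeast display cells were stained with 10% biotinylated, detergent-solubilized Sf9 membrane reagent for 1 hour at 4 °C, enriched on streptavidin microbeads and sorted by FACS. The low and high (top ~1%) gates were set on anti-HA fluorescence for expression and streptavidin fluorescence for reagent binding.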

Sequence	polyreactivity (PSR sort gate)
QVQLVESGGGLVQAGGSLRLSCAASGFMFTRYAMGSYRQAPGKERELVAAISWIGTSTYYADSVKGRCTISRDNAKNTVFLQMNSLTPEDTAVYYCNALLYSTGRPGFYLGYDYWGQGTQVTVSS	high polyreactivity
QVQLVESVGGLVQAGGSLRLSCAASGRTFSFYAMGRYRQRQGKESELVAGIDGNDGSTYYADSVKGRFTISRDNAKNTVYIQMNSLKPEDTAVYYCNAEKWTGQYCCYYRMYYYWGQGTQVTVSS	low polyreactivity
QVQLVESGGGLVQAGGILRLSCAASGSIFPYYAMGWYRQAPGKERELVAGITSGTRTNYADSVKGRFTISRDNAKNTVYLQMNSLKPEDTAVYYCAKEAHIWGYPDYEYWGQGSQVTVSS	high polyreactivity
QVQLVESGGGLVQAGGSLRLSCAASGITFGYYAMGWYRQAPGKERELVAAISNSGRTYYADSVKGRFTISRDNAKNTVYLQMNILKPEDTAVYYCAAEDAYYDFYYWGQGTKVTVSS	low polyreactivity
QVQLVESGGGLVQAGGSLRLSCAASGSTFRYYAMGWYRQAPGKERELVAAISWGAGSTYYADSVKGRFTISRDNAKNTVYLQMNSLKPEDTAVYYCNTLQITGWYDYWGQGTQVTVSS	high polyreactivity
QVQLVESGGGLVQAGGSLRLSCAASGSTFSTYAMGWYRQAPGKERELVARITVSVGSTYYADSVKGRFTMSRDNAKNTVYLQMNSLKPEDTAVYYCAVGSDEVYFVGDYEYWGQGTQVTVSS	low polyreactivity
QVQLVESGGGLVQARRSLRLSCAASGSTFVGNTMGWYRQAPGTERELVAAISRRGGGTNYADSVKGRFTISRDNAKNTVYLQMNSLKPEDTAVYYCAAKLVYPGKFNYWGQGTQVTVSS	high polyreactivity
QVQLVESGGGLVQAGGSLRLSCAASGFTFDVYTMGWYRQAPGKEREFVAAISGSGGSTYYADSVKGRFTISRDNAKNTVYLQMNSLKPEDTAVYYCNAGLSRVSHRHLSHSLQGYDYWGQGTQVTVSS	low polyreactivity
QVQLVESGGGLVQAGGSLRLSCAASGFTFWLYAMGWYRQATGKEREFVAAISTSGGSTYADSVKGRFTISRDNAKNTVYLQMNSLKPEDTAVYYCNAGYLLYYDYHLFYWGQGTQVTVSS	low polyreactivity
QVQLVESGGGLVQAGGRLRLSCAASGRIFGVNAMGWYRQAPGKERELVAVISSGGSTYYADSVKGRFTISRDNAKNTVYLQMNSLKPEDTAVYYCNAVVGRWFPYNLSDYWGQGTQVTVSS	low polyreactivity
QVQLVESGGGLVQAGGSLRLSCAASGSTLYPYDMGWYRQAPGTERELVAAIDSGGSTNYADSVKGRFTISRDNAKNTVYLQMNSLKPEDTAVYFFAADASGENDYWGQGTQVTVSS	low polyreactivity
QVQLVESGGGLVQAGGSLRLSCAASGPTFYRYAMGWYRQAPGKERELVAAISSSGGSTYYADSVKGRFTISRDNANNTVYLQMNSLKPEDTAVYYCATGYRYASYLCNYWGHGTQVTVSS	high polyreactivity
QVQLVESGGGLVQAGGSLRLSCAASGSTWIYAMGWYRQAPGKERELVAAISGSGDRTYYADSVKGRFTISRDNAKNTVYLLMNSLQPEDTAVYFCATVYYKSGKYDYWGQGTQVTVSS	high polyreactivity
QVQLVESGGGLVQAGGSLRLSCAASGFTFTPNAMGWYRQAPGKERELVAAISGSGGSTYYADSVKGRFTISRDNAKNTVYLQMNSLKPEDTAVYYCAKRRGVYTHWYDYWGQGTQVTVSS	high polyreactivity
QVQLVESGGGLVQAGGSLRLSCAASGSIFQINVMGWYRQAPGKERELVAASYADSVKGRFTISRDNAKNTVYVQMNSLKPEDTAVYYCARTNPAYSIYDYWGQGTQVTVSS	low polyreactivity
QVQLVESGGGLVQAGGSLRLSCAASGNTFVYNDMGWYRQAPGKERELVADIRYSGSTYYADSVKGRFTISRDNAKNTVYLQMNSLKPEDTAVYYCAVDSYYFLKDPISYGLYYYWGQGSQVTVSS	low polyreactivity
QVQLVESGGGLVQAGGSLRLSSAASGITIRYNDMGWYRQAPGKERELVAAITFSGGSTYYPDSVKGRFTISRDNAMNTVYLQMNSLKPEDTAVYYCAKLGSTSSRGNYDYWGQGTQVTVSS	low polyreactivity
QVQLVESGGGLVQAGGSLRLSCSASGSTFGRYVMGWYRQPPGKERELVAAISKNAGSTYYADSVKGRFTISRDNAKNTVYLQMNSLKPEDTAVYYCNTVYYWYSPLNYWGQGTQVTVSS	high polyreactivity
QVQLVESGGGLVQAGGSLRLSCAASGFIFYPYAMGWYRQAPGKERELVAVIRWSGGRTYYADSVKGRFTISRDNAKNTVYLQMNSLKPEDTSVYYCNARKITRYAVGPRKLGDYWGQGTQVTVTS	high polyreactivity
QVQLVESGGGLVQAGGSLRLSCAASGSIFYHYAMGWYRQAPGKERELVAGITSSGDRTHYADSVKGRFTISRDNAKNSVYLQMNSLKPEDTAVYYCNTATIHGTAYDYWGQGTQVTVSS	low polyreactivity
QVQLVESGGGLVQAGGSLRLSCAASGSTFTYYAMGWYRQPPGKERELVAAIDTSGTSTYYADSVKGRFTISRDNAKNTVYLQINSLKPEDTAVYYCNAYPTTYYQQYDYWGQGTQVTVSS	low polyreactivity

Sequence	polyreactivity (PSR sort gate)
QVQLEESGGGLVQAGGSLRLSCAASGFIYAHYAMGWYRQAPGKERELVAAISSRGGSTYYADSVKGRFTISRDYAKNPVYLQINSLKPEDTAVYYCAKARHRPARGYEYWGLGTQVTVSS	high polyreactivity
QVQLVESGGGLVQAGGSLRLRCAASGFTFYRYAMGWYRQAPGKERELVAAISQRGGTTYYADSVKGRFTISRDNSKNTVYLQMNSLKPDDPAVYYCAARGRAYQNAYEYDYWGQGTQVTVSS	high polyreactivity
QVQLVESGGGLVQAGGSLRLSCAASGRTLQIYVMGWYRQAPGKERELVASITGRGGSTYYADSVKGRFTISRDNAKNTVYLQMNSLKPEDTAVYYCARRYYRLDYWGQGTQVTVSS	high polyreactivity
QVQLVESGGGLVQAGGSLRLSCAASGSIYGVKAMRWYRQAPGKERELVADITKSTGDTYADSVKGRFTISRDNAKNTVYLQMNSLKPEDTAGYYCNARVTVKQKRLYLYDFWGQGTQVTVSS	low polyreactivity
QVQLVESGGGIVQAGGSLRLSCAASGSIFGSYAMGWYRQAPGKERELVAAITRSGGRTYYADSVKGRFTISRDNAKNTVYLQMNSLKPEDTAVYYCNAKLKLPSGGDYWGQGTQVTVSS	high polyreactivity
QVQLVESGGRLVQAGGSLRLSCAASGLIFNDNAMGWYRQAPGKERELVAAISWGGGTTYYADSVKGRFSNSRDNAKYTVFLQMNSLKPEDTAVYYCAAEEAMFYDFYYVLLDYWGQGTQVTVSS	high polyreactivity
QVQLVESGGGLVQAGGSLRLSCAASGSIFDTYAMGWYRQAPGQERELVAAITSGGSTNYADSVKGRFTISRDNAKNTVYLQMNSLKPEETAVYYCAADAEDRPSWPGNSEYEYWGQGTQVTVSS	low polyreactivity
QVQLVESGGGLVQAGGSLRLSCAASGFTFKKNAMGWYRQATGKERELVAAIRSGTSTKYADSVKGRFTISRDNAKNTVYLQMNSLKPEDTAVYYCAAEEPEYLATWRNRRYDYWGQGTQVTVSS	low polyreactivity
QVQLVETGGGLVQAGGSLRISCAASGRIFGVYAMGWYRQAPGKERELVAAITRGASTYYADSVKGRFTISRDNAKNTVYLQMNILKPEDTAVYYCAVSQYRGIYRKYDYWGQGTQVTVSS	high polyreactivity
QVQLVESGGGLVQAGGSLRLSCAASGFTFGRYAMGWYRQAPGKERELVAAISSSGSSTYYADSVKGRFTLSRDNAKNTVYLQMNSLKPEDTAVYYCNTRCRKHPSSYPYDYWGQGTQVTVSS	high polyreactivity
QVQLVESGGALVQAGGSLRLSCAASGFIFYSYAMGWYRHAPGKETELVAAITEDGDSTYYADSVKGRFTISRDNAKNTVYLQMNSLKPEDSAVYYCNTDLTFNGTSGDYDYWGQGTLVTVSS	low polyreactivity
QVQLVESGGGLVQAVGSLRLSCAASGSIFLLYDMGWYRPAPGKERELVAAITWSGGSTYYADSVKGRFTISRDNAKNTVYLQMNSLKPEDTAVYYCAADEPYPTAYEYWGQGTQVTVSS	low polyreactivity
QVQLVESGGGLVQSGGSLRLSCAASGSTFTSNTMGCYRQAPGKESEIVAGITWRGGSTYYADSVKGRFTISRDNAKNTVYLQMNSLKPEDTAVYYCAAYGYSKDVWNFYYWGQGTQVTVSS	low polyreactivity
QVQLVESGGGLVQAGGSLRLSCAASGRTFEGNAMGWYRQAPGKERELVAAITSGGRTNYADSVKGRFTISRDNAKNTVYLQMNSLKPEDTAVYYCAKVYRSIGPNVSRYGLSYYYWGLGTQVTVSS	low polyreactivity
QVQLQESGRRPGAAGGSPRMSCAASGNIFWVAVMGRYRQAPGKERELVASIGFGCTTYYADSVKCRFTISRDNAKNTVYLQMISLKPEDTAVYYCAAPHYDWGELDYWGQGTQVPVSS	low polyreactivity
QVQLVESGGGLVQAGGTLRLSCAASGRIFGYNAMGWYRQAPGKERELVAVISTSGTIRYYADSVKGRFTISRVNAKNTVYLQMKSLKPEDTAVYYCAARYYQRANGFGYWGQGTQVTVSS	low polyreactivity
QVQLVESGGGLVQAGGSLRLSCAASGSIFSYYAMGWYRQAPGKERELVAGISISTGSTYYADSVKGRFTISRDNAKNTVYLQMNSLIPEDTAVYYCNASALDPLYAKDDYWGQGTQVTVSS	low polyreactivity
QVQLVESGGGFDQARCSLRLSCPACASILREYAMGWYRQAPGKERELVATISRDGSTNYADSVKGRFTISRDNAKNTVYLQMNSLKPEDTAVYYCNTDLTYPYPNVEVLVYGFKLDYWGQGTQVTVSS	low polyreactivity
QVQLVESGGGLVQAGGSLRLSCAASGSIFTHNAMGWYRQAPGKERELVAAISTSGGRTYYADSVKGRFTISRDNAKNTVYLQMNSLKPEDTAVYYCAKLSTARYDYWGQGTQVTVSS	high polyreactivity
QVQLVESGGGLVQAGGSLRLSCAASGSTFGGYAMGWYRLAPGKERELVAAISSSGTSTYYADSVKGRFTISRDNAKNTVYLQMNSLKPEDTAVYYCATDFSFFSRFDYWGQGTQVTVSS	low polyreactivity
